According to US20260183373A1 (Genentech, published 2026):
Numbering of substitutions follows the chain as printed. In names and notes the source's numbering stands. Like-named read-outs stand apart in the source and are kept apart here.

B1: Fab-NTF(LC)-1 format, MMP3-D4K-4, RF61-D (Fab)
heavy: QLQLQESGPGLVKPSETLSLTCTVSGGSISRGSHYWGWIRQPPGKGLEWIGSIYYSGNTYFNPSLKSRVTISVDTSKNQFSLKLSSVTAADTAVYYCARLGPDDYTLDGMDVWGQGTTVTVSSASTKGPSVFPLAPSSKSTSGGTAALGCLVKDYFPEPVTVSWNSGALTSGVHTFPAVLQSSGLYSLSSVVTVPSSSLGTQTYICNVNHKPSNTKVDKKVEPKSCDKTHTDYKDDDDK
light: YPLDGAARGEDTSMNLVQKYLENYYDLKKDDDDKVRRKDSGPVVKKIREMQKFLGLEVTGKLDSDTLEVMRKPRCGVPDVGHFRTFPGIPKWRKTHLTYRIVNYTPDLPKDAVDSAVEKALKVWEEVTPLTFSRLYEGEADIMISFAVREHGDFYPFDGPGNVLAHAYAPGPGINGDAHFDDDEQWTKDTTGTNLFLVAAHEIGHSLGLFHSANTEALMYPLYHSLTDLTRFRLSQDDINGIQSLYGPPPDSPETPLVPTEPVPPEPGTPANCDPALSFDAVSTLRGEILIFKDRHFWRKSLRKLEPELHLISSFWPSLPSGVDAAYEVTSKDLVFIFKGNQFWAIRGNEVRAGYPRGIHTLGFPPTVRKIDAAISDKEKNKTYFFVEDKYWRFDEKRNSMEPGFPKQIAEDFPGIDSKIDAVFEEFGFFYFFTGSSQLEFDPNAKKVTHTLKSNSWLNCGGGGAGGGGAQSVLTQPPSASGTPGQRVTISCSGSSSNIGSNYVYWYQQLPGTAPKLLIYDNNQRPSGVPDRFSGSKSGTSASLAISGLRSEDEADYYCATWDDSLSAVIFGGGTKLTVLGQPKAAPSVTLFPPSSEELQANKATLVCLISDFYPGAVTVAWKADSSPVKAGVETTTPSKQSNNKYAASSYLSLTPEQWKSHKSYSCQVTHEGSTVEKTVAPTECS
notes: MMP3-D4K-4 fused to the N-terminus of the light chain; also called RF61-D Fab fusion
B2: anti-gD Control (antibody, human IgG1, kappa)
heavy chain with neprolysin fused to its C-terminus: not shown
light chain: DIQMTQSPSSLSASVGDRVTITCRASASVDSYGNSFIHWYQQKPGKAPKLLIYRASDLESGVPSRFSGSGSGTDFTLTISSLQPEDFATYYCQQNYADPFTFGQGTKVEIKRTVAAPSVFIFPPSDEQLKSGTASVVCLLNNFYPREAKVQWKVDNALQSGNSQESVTEQDSKDSTYSLSSTLTLSKADYEKHKVYACEVTHQGLSSPVTKSFNRGEC
B3: IgG-CTF-2 format, neprolysin, crenezumab G33S(HC) (antibody)
heavy: not shown
light: DIVMTQSPLSLPVTPGEPASISCRSSQSLVYSNGDTYLHWYLQKPGQSPQLLIYKVSNRFSGVPDRFSGSGSGTDFTLKISRVEAEDVGVYYCSQSTHVPWTFGQGTKVEIKRTVAAPSVFIFPPSDEQLKSGTASVVCLLNNFYPREAKVQWKVDNALQSGNSQESVTEQDSKDSTYSLSSTLTLSKADYEKHKVYACEVTHQGLSSPVTKSFNRGEC
notes: Variant of m9
B4: IgG-CTF-2 format, neprolysin, solanezumab (antibody)
heavy: not shown
light: B3 light with I2V, P15L, E17Q, V30I, N33D, D35N, T36A, Y41F, Q50R
notes: Human IgG1 with NEP fused to the C-terminus of both heavy chains; also called solanezumab-NEP fusion
B5: IgG-CTF-2 format, neprolysin, crenezumab (antibody)
heavy: not shown
light: B3 light
notes: Human IgG1 with NEP fused to the C-terminus of both heavy chains; also called crenezumab-NEP fusion
B6: IgG-CTF-2 format, neprolysin, crenezumab G33S(HC)/S56F(LC) (antibody)
heavy: not shown
light: B3 light with S61F
notes: Variant of m9
B7: RF61 chimeric antibody variant R50D LC, S62P L95N T100aA D100cE M100eF HC (mouse IgG2a constant domains) (antibody, V domains shown)
VH: QLQLQESGPGLVKPSETLSLTCTVSGGSISRGSHYWGWIRQPPGKGLEWIGSIYYSGNTYFNPPLKSRVTISVDTSKNQFSLKLSSVTAADTAVYYCARNGPDDYALEGFDVWGQGTTVTVSS
VL: QSVLTQPPSASGTPGQRVTISCSGSSSNIGSNYVYWYQQLPGTAPKLLIYDNNQRPSGVPDRFSGSKSGTSASLAISGLRSEDEADYYCATWDDSLSAVIFGGGTKLTVL
notes: Round 3 variant, one of the eight; copies: 2 + 2
B8: RF61 chimeric antibody variant R50D Y34F LC, S62P L95N D100cE M100eF HC (mouse IgG2a constant domains) (antibody, V domains shown)
VH: B7 VH with A106T
VL: B7 VL with Y35F
notes: as for B7
B9: RF61 chimeric antibody variant R50N LC, L95N D99H T100aA HC (mouse IgG2a constant domains) (antibody, V domains shown)
VH: B7 VH with P64S, D104H, E108D, F110M
VL: B7 VL with D51N
notes: as for B7
B10: RF61 chimeric antibody variant R50N LC, S62P L95N D99H T100aA D100cE M100eF HC (mouse IgG2a constant domains) (antibody, V domains shown)
VH: B7 VH with D104H
VL: B7 VL with D51N
notes: as for B7
B11: RF61 chimeric antibody variant R50N Y34F LC, S62P D99H D100cE M100eF HC (mouse IgG2a constant domains) (antibody, V domains shown)
VH: B7 VH with N100L, D104H, A106T
VL: B7 VL with Y35F, D51N
notes: as for B7
B12: RF61 chimeric antibody variant R50D Y34F LC, S62P D99H M100eF HC (mouse IgG2a constant domains) (antibody, V domains shown)
VH: B7 VH with N100L, D104H, A106T, E108D
VL: B7 VL with Y35F
notes: as for B7

What was measured:
[1] = target: T1, anti-HER2 antibody 4D5, IgG1 subtype; experiment: SPR: 4D5 IgG1 captured on Protein L chip, RF61-MMP3 fusion constructs injected; monovalent affinity of the targeting arm
T1 construct: Captured on a Protein L chip as the IgG1 target of the RF61-MMP3 fusion constructs
Experimental: RF61 surface plasmon resonance: RF61 affinity for human IgG was assessed with a Biacore 8K+ or T200. For rounds one and two of affinity maturation, the Fc domain of human IgG1 was captured on a Series S Protein A chip according to the manufacturer's protocols. Serial dilutions of the RF61 Fab variants were prepared in HBS-P+ buffer. The dilutions were passed over the chip for 4 min, followed by a 5 min dissociation step. Variants were assessed using the response units at the point of late analyte binding normalized to Fc capture level. […] Serial dilutions of human IgG1 Fc in HBS-P+ were passed over the chip for 10 minutes, followed by a 6 min dissociation step. Affinity constants were obtained through kinetic fitting using the Biacore Evaluation Software (GE). […] A single 1000 nM concentration of each binding ablation variant was passed over the chip for 10 minutes, followed by a 6 min dissociation step. […] Serial dilutions of the RF61-MMP3 fusion constructs were prepared in HBS-P+ buffer. The dilutions were flowed over the chip for 3 min, followed by 8 min of dissociation. […] Affinity constants were determined as described above.

Aβ(1-40) [2] = target: T2, Aβ(1-40) (UniProt P05067 672-711); experiment: cell-based or functional assay
Aβ(1-28) = target: T3, Aβ(1-28) (UniProt P05067 672-699); experiment: SPR (Biacore T200): fusion captured on a protein A chip, Aβ(1-28) injected as analyte
T3 construct: domain: Aβ(1-28); also called amyloid-β 1-28
Experimental: Aβ surface plasmon resonance: Solution affinity constants for anti-Aβ antibodies were assessed on a Biacore™ T200. […] Affinity constants were obtained through kinetic fitting using the Biacore Evaluation Software.

Aβ(1-40) [3] = target: T2, Aβ(1-40); experiment: cell-based or functional assay; remark: listed apart in the source
Aβ(1-42) [4] = target: T4, Aβ(1-42) (UniProt P05067 672-713); experiment: cell-based or functional assay
Aβ(1-40) [5] = target: T2, Aβ(1-40); experiment: cell-based or functional assay; remark: listed apart in the source
Aβ(1-42) [6] = target: T4, Aβ(1-42); experiment: cell-based or functional assay; remark: listed apart in the source
human IgG1 Fc = target: T5, human IgG1 Fc (human, UniProt P01857-1 104-330 = IgG part, limits assumed); experiment: SPR: chimeric antibody captured by anti-mouse antibody on CM5 chip, human IgG1 Fc injected
T5 construct: domain: Fc; also called Fc domain of human IgG1

| Binder | EC50 of Aβ(1-40) cleavage (intact Aβ by ELISA) (Aβ(1-40) [2]) [nM] | Kd (Aβ(1-28)) [nM] | koff (Aβ(1-28)) [s⁻¹] | kon (Aβ(1-28)) [M⁻¹ s⁻¹] | binding result (human IgG1 Fc) | further results |
| --- | --- | --- | --- | --- | --- | --- |
| B1 | – | – | – | – | – | Kd [1]: 104 nM |
| B2 | 11 | – | – | – | – | – |
| B3 | 1.6 | 1.8 | 0.0013 | 750000 | – | – |
| B4 | 3.9 | 0.5 | 0.00014 | 300000 | – | – |
| B5 | 1.3 | 4.7 | 0.0041 | 880000 | – | EC50 of Aβ(1-40) cleavage, fold lower than the solanezumab-NEP fusion (Aβ(1-40) [3]): 3 fold; potency of Aβ cleavage, fold over the non-targeted control (Aβ(1-40) [3]): ~15 fold; potency of Aβ cleavage, fold over the non-targeted control (Aβ(1-42) [4]): ~9 fold; EC50 of Aβ(1-40) cleavage (intact Aβ by ELISA) (Aβ(1-40) [5]): 1.1 nM; EC50 of Aβ(1-42) cleavage (intact Aβ by ELISA) (Aβ(1-42) [6]): 5 nM |
| B6 | 2.3 | 0.8 | 0.0006 | 750000 | – | – |
| B7 | – | – | – | – | binds | – |
| B8 | – | – | – | – | binds | – |
| B9 | – | – | – | – | binds | – |
| B10 | – | – | – | – | binds | – |
| B11 | – | – | – | – | binds | – |
| B12 | – | – | – | – | binds | – |
